Measured values published in patent publication US20260356955 (published 2026).
Where a chain is given by its changes, count along the chain named.

T1: cynomolgus KLRB1 on CHO-K1 (cynomolgus)
T1 chain: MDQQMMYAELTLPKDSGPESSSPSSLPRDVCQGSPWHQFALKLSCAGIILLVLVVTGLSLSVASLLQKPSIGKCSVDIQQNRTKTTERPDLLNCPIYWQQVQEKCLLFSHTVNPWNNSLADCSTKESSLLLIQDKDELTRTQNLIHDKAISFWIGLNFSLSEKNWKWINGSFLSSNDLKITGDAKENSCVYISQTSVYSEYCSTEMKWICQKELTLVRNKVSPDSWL

B1: Hu22F10G3-3.4 (antibody, V domains shown)
VH: QVQLQESGPGLVKPSQTLSLTCTVSGYSLTSDFAWNWIRQHPGKGLEWMGDIRYSGSTDYNPSLKGRSTISRDTSKNQFSLKLSSVTAADTAVYYCARGGYYGYDEGYPMDYWGQGTLVTVSS
VL: DIVMTQSPDSLAVSLGERATISCRASESVDVYGNSFMHWYQQKPGQPPKLLIYLAFNLKSGVPARFSGSGSGTDFTLTISSLQAEDVATYYCQQNNEDPFTFGQGTKLEIK
B2: Hu22F10G3-1.1 (antibody, V domains shown)
VH: B1 VH with M49I, S68V, R72V
VL: B1 VL with S22N, A64D, T89V
B3: 22F10G3 chimeric (antibody, V domains shown)
VH: DVQLQESGPGQVKPSQSLSLTCTVTGYSLTSDFAWNWIRQFPGNRLEWMGDIRYSGSTDYNPSLKGRSSITRDTSKNQFFLQLNSVTTEDTATYYCARGGYYGYDEGYPMDYWGQGTSVTVSS
VL: NIVLTQSPASLAVSLGQRATISCRASESVDVYGNSFMHWYQQKTGQPPKLLIYLAFNLKSGVPARFSGSGSRTDFTLTIDPVEADDAATYYCQQNNEDPFTFGSGTKLEIK
B4: Hu50A8F2-01 (antibody, V domains shown)
VH: QVQLVQSGAEVKKPGASVKVSCKASGYTFIDYYINWVRQAPGQGLEWMGWIFPGSGHTKYNENFKGRVTMTRDTSTSTVYMELSSLRSEDTAVYYCARGDRSALGYFDYWGQGTTVTVSS
VL: DIQMTQSPSSLSASVGDRVTITCTASSSVSSTYLHWYQQKPGKAPKLLIYSTSNLASGVPSRFSGSGSGTDFTLTISSLQPEDFATYYCHQYHRSPLTFGQGTKLEIK
B5: Hu50A8F2-03 (antibody, V domains shown)
VH: B4 VH
VL: B4 VL with M4L, A44S, F72Y
B6: Hu50A8F2-11 (antibody, V domains shown)
VH: B4 VH with R67K, M70L, R72V
VL: B4 VL with M4L, A44S, F72Y
B7: Hu50A8F2-06 (antibody, V domains shown)
VH: B4 VH with R67K, R72V
VL: B4 VL with F72Y
B8: Hu50A8F2-07 (antibody, V domains shown)
VH: B4 VH with R67K, R72V
VL: B4 VL with M4L, A44S, F72Y
B9: Hu50A8F2-02 (antibody, V domains shown)
VH: B4 VH
VL: B4 VL with F72Y
B10: Hu50A8F2-05 (antibody, V domains shown)
VH: B4 VH with R67K, R72V
VL: B4 VL
B11: 50A8F2 chimeric (antibody, V domains shown)
VH: QIQLQQSGPELVKPGASVKISCKASGYTFIDYYINWVKQKPGQGLEWIGWIFPGSGHTKYNENFKGKATLTVDTSSSTAYMHLSSLTSEDTAVYFCARGDRSALGYFDYWGQGSTLTVSS
VL: QIVLTQSPAIMSASLGERVTMTCTASSSVSSTYLHWYQQKPGSSPKLWIYSTSNLASGVPARFSGSGSGTSYSLTFSSMEAEDAATYYCHQYHRSPLTFGAGTKLELK
B12: 5A11D10 chimeric (antibody, V domains shown)
VH: B3 VH with R45K, G66T, Q82H
VL: B3 VL with T44A
B13: 13H2D11 (antibody, V domains shown)
VH: QVQLQQPGAELVRPGASVKLSCKASGYSFTSYWMNWVKQRPGQGLEWIGMIHPSDSETRLNQKFKDKATLTVDKSSSTAYMQLSSPTSEDSAVYYCASEGFRRGSFAYWGQGTLVTVSA
VL: not shown
B14: 62H1D6 (antibody, V domains shown)
VH: QVQLQQSGPELVRPGVSVKISCKGSGYTFTDYAMHWVKQSHAKSLEWIGVISTYYGNTNYNQKFKGRATMTVDKSSSTAYMELARLTSEDSAIYYCAREYGNYPYYYAMDYWGQGTSVTVSS
VL: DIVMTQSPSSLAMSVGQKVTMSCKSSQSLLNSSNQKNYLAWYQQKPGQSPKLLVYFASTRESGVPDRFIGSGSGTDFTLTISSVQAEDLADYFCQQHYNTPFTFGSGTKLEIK
B15: 9C10G11 (antibody, V domains shown)
VH: QVQLKESGPGLVAPSQSLSITCTVSGFSLTGYGVNWVRQPPGKGLEWLGMIWGDGSTDYNSALKSRLSISKDNSKSQVFLKMNSLQTDDTARYYCARTYNNYHYWYFDVWGAGTTVTVSS
VL: DIQMTQSPASLSASVGETVTITCRASGNIHNYLAWYQQKQGKSPQLLVYNAKTLADGVPSRFSGSGSGTQYSLKINSLQPEDFGSYYCQHFWSTPYTFGGGTKLEIK
B16: 39C5D6 (antibody, V domains shown)
VH: B15 VH with G31D, P40T, S61L, A62P, S70T, N100A
VL: B15 VL with A55E, E81D, S85N, Y87F
B17: 37G6A7 (antibody, V domains shown)
VH: B15 VH with G31D, S68T, N100G, N101T
VL: B15 VL with N50I, S85T
B18: 7B6C7 chimeric (antibody, V domains shown)
VH: B15 VH with T30N, G31D, G44A, S68T, S70T, Q86H, Y94F, N101Y
VL: B15 VL with A34S, K52E, S77N
B19: 92E12F2 (antibody, V domains shown)
VH: DVQLQESGPGLVKPSQSLSLTCSVTGYSITSGYYWNWIRQFPGNKLEWLGYISYDGSNNDNPSLTNRISISRDTSRNQFFLKFNSVTTDDSATYYCARGDFYGYVYWGQGTTLTVSS
VL: DIVLTQSPASLAVSLGQRATISCRASKSVSSSGYTYLHWYQQKPGQPPKLLIYLTSNLDSGVPARFSGSGSGTDFTLNIHPVEEEDAATYYCQHSRELPRTFGGGTKLEIK
B20: 57E2E4 chimeric (antibody, V domains shown)
VH: DVQLQESGPGLVKPSQSLSLTCSVTGYSISSGYYWNWIRQFPGNKLEWMAYISYDGSNNYNPSLKNRVSITRDTSKNQFFLRLNSVTAEDTATYYCTRGDFYGYVYWGQGTTLTVSL
VL: B19 VL with S28R, S31T, G33D, T35S, L37M, T55A, D59E, L98F
B21: 52G9B12B5 chimeric (antibody, V domains shown)
VH: QVQLQQSGAELMQPGTSVKIPCKATGYTFSSFWMEWVKQRPGHGLEWIGEIFPGSGSTNYNEKFKGKATFTADTSSNTAYMQLSSLTSEDSAVYYCATLITTGLTYWGQGTLVTVSA
VL: NIVMTQSHKFMSTSVGDRVSITCKASQDVNTAVAWYQQIPGRSPKLLIYWASTRHTGVPDRFTGSGSGTDYTLTISSVQAEDLAFYYCQQHYRIPFTFGAGTKLELK
B22: 66G9C11 (antibody, V domains shown)
VH: HVQLQQSGPELVRPGASVKLSCKASGYIFFTFWMNWVKQRPGQGLEWIGQIFPASGSTNYNEMFEGKATLTVDTSSSTAYMQLSSLTSEDSAVYYCASLERAWFAYWGQGTLVTVSA
VL: DIVLTQSPATLSVTPGDRVSLSCRASQSINNYLHWYQQKSHESPRLLIKYASQSISGIPSRFSGSGSGADFTLSINSVETEDFGMYFCQQSNSWPPTFGGGTKLEIK
B23: 5B1B11 chimeric (antibody, V domains shown)
VH: QVQLQQPGAELVKPGASVKLSCKASGYTFTNYWMHWVKQRPGQGLEWIGEINPSNGRTNFNEKFKSKATLTVDKSSSTAYMQLSSLTSEDSAVYYCARSYDSYYAAVDYWGQGTSVTVSS
VL: QIVLTQSPAIMSASLGEEITLTCSASSSVSYMHWYQQKSGTSPKLLIYTTSNLPSGVPSRFSGSGSGTFYSLTISSVEAEDAADYYCHQWSTYPYTFGGGTKLEIK

Molecular target: human KLRB1 ECD (human)
Test: SPR

human KLRB1 ECD (human), sequence (chain, as listed by the source): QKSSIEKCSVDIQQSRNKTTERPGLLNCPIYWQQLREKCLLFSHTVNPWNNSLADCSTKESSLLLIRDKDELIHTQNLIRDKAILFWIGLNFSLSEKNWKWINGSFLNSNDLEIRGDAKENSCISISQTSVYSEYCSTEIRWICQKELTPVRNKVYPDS

Kd [nM] | Binder
0.129 | B1
0.134 | B2
0.0429 | B3

Molecular target: human KLRB1 ECD (human)
Test: ELISA

EC50 [nM] | Binder
0.0197 | B4
0.0113 | B5
0.0144 | B6
0.0236 | B7
0.0174 | B8
0.0167 | B9
0.0183 | B10
0.0252 | B11

Molecular target: T1, cynomolgus KLRB1 on CHO-K1
Test: FACS

binding result | Binder
no binding | B4
no binding | B5
no binding | B6
no binding | B7
no binding | B8
no binding | B9
no binding | B10
no binding | B11

Molecular target: human KLRB1 ECD (human)
Test: SPR
Remark: another data set of the same source

Kd [nM] | Binder
1.55 | B4
0.665 | B5
0.828 | B7
0.229 | B11

Molecular target: human KLRB1 ECD (human)
Test: SPR
Remark: another data set of the same source

Kd [nM] | Binder
0.0591 | B12
17.1 | B13
7.03 | B14
14.8 | B15
1.21 | B16
23.3 | B17
0.0147 | B18
3.33 | B19
0.575 | B20
4.4 | B21
6.38 | B22
0.255 | B23
0.0521 | B11

Molecular target: human KLRB1 on CHO-K1 (human)
Test: FACS

human KLRB1 on CHO-K1 (human), sequence (chain, as listed by the source): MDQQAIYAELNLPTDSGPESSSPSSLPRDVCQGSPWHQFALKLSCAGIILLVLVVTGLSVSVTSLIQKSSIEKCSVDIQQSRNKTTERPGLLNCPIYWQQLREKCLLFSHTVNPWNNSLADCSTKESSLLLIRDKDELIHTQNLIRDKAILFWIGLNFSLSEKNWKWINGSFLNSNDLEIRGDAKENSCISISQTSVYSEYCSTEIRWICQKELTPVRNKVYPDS

EC50 [nM] | Binder
5.54 | B4
5.17 | B5
5.43 | B6
5.44 | B7
5.72 | B8
5.81 | B9
5.51 | B10
5.87 | B11

Molecular target: human KLRB1 ECD (human)
Test: SPR
Remark: another data set of the same source

Kd [nM] | Binder
0.12 | B1
0.124 | B2
0.0665 | B3
